Each block holds one sequence with its values, some of them ahead of it.
Tests used:
HLA-B*08:01 = assay: IEDB peptide-MHC binding, purified MHC/competitive/fluorescence; ≥ and ≤ were set here for values at or beyond the usual limits of such assays
HLA-A*01:01 [1] = assay: IEDB peptide-MHC binding, purified MHC/competitive/fluorescence; filed as Kd, often an IC50 or EC50 that approximates it; ≥ and ≤ were set here for values at or beyond the usual limits of such assays
HLA-A*03:01 [2] = assay: as above
HLA-B*35:01 = assay: as above
HLA-B*58:01 [3] = assay: as above; settings: source organism: Yersinia pestis Nepal516
HLA-B*27:05 [4] = assay: as above
HLA-A*03:01 [5] = assay: IEDB peptide-MHC binding, purified MHC/competitive/fluorescence; ≥ and ≤ were set here for values at or beyond the usual limits of such assays; settings: source organism: Vaccinia virus Copenhagen
HLA-A*11:01 [6] = assay: as above; settings: source organism: Vaccinia virus Copenhagen
HLA-A*24:02 = assay: as above
HLA-A*01:01 [7] = assay: IEDB peptide-MHC binding, purified MHC/direct/fluorescence; filed as Kd, often an IC50 or EC50 that approximates it; ≥ and ≤ were set here for values at or beyond the usual limits of such assays; settings: source organism: Camelpox virus M-96
HLA-A*02:01 [8] = assay: as above; settings: source organism: Camelpox virus M-96
HLA-A*11:01 [9] = assay: as above; settings: source organism: Variola virus
HLA-A*26:01 [10] = assay: as above; settings: source organism: Camelpox virus M-96
HLA-A*31:01 = assay: as above; settings: source organism: Camelpox virus M-96
HLA-A*69:01 [11] = assay: as above; settings: source organism: Camelpox virus M-96
HLA-B*08:02 = assay: as above; settings: source organism: Variola virus
HLA-B*27:05 [12] = assay: as above; settings: source organism: Camelpox virus M-96
HLA-B*40:01 = assay: as above; settings: source organism: Camelpox virus M-96
HLA-B*48:01 = assay: as above; settings: source organism: Camelpox virus M-96
HLA-B*58:01 [13] = assay: as above; settings: source organism: Variola virus
HLA-A*30:01 = assay: IEDB peptide-MHC binding, purified MHC/competitive/fluorescence; filed as Kd, often an IC50 or EC50 that approximates it; ≥ and ≤ were set here for values at or beyond the usual limits of such assays; settings: source organism: Vaccinia virus WR
HLA-B*15:01 [14] = assay: as above
HLA-B*15:17 = assay: as above
HLA-B*57:01 = assay: as above
HLA-A*32:01 = assay: IEDB peptide-MHC binding, purified MHC/competitive/radioactivity; filed as Kd, often an IC50 or EC50 that approximates it; ≥ and ≤ were set here for values at or beyond the usual limits of such assays; settings: source organism: Vaccinia virus WR
HLA-A*02:01 [15] = assay: IEDB peptide-MHC binding, purified MHC/competitive/fluorescence; filed as Kd, often an IC50 or EC50 that approximates it; ≥ and ≤ were set here for values at or beyond the usual limits of such assays
HLA-A*02:03 = assay: as above
HLA-A*02:11 = assay: as above
HLA-A*02:12 = assay: as above
HLA-A*02:16 = assay: as above
HLA-A*02:19 = assay: as above
HLA-A*23:01 = assay: as above
HLA-A*24:03 = assay: as above
HLA-A*26:01 [16] = assay: as above
HLA-A*29:02 = assay: as above
HLA-A*68:02 = assay: as above
HLA-A*69:01 [17] = assay: as above
HLA-B*18:01 = assay: as above
HLA-B*27:03 = assay: as above
HLA-B*39:01 = assay: as above
HLA-B*46:01 = assay: as above
HLA-B*51:01 = assay: as above; settings: source organism: Giardia lamblia ATCC 50803
HLA-C*06:02 = assay: IEDB peptide-MHC binding, purified MHC/direct/fluorescence; filed as Kd, often an IC50 or EC50 that approximates it; ≥ and ≤ were set here for values at or beyond the usual limits of such assays; settings: source organism: Influenza A virus (A/81/HO)
HLA-B*15:01 [18] = assay: IEDB peptide-MHC binding, purified MHC/competitive/fluorescence; ≥ and ≤ were set here for values at or beyond the usual limits of such assays; settings: source organism: Vaccinia virus
[19] = source organism: Vaccinia virus WR
[20] = source organism: Yersinia pestis Nepal516
[21] = source organism: Vaccinia virus Copenhagen
[22] = source organism: Klebsiella pneumoniae subsp. pneumoniae NTUH-K2044
[23] = source organism: Bacillus anthracis str. A0488
[24] = source organism: Giardia lamblia ATCC 50803
[25] = source organism: Influenza A virus (A/81/HO)
[26] = source organism: Vaccinia virus

Sequence: DIKASNIVL
IC50 (HLA-B*08:01; [19]): ≥ 266 µM

Sequence: FTIRDVLAY
Kd (HLA-A*01:01 [1]; [20]): 2.5 nM | Kd (HLA-A*03:01 [2]; [20]): ≥ 20000 nM | Kd (HLA-B*35:01; [20]): 1.3 nM | Kd (HLA-B*58:01 [3]): 4.1 nM

Sequence: FTWSGDVRY
Kd (HLA-A*01:01 [1]; [20]): 132 nM | Kd (HLA-B*35:01; [20]): ≤ 0.1 nM | Kd (HLA-B*58:01 [3]): 404 nM

Sequence: GRAGVVPRY
Kd (HLA-B*27:05 [4]; source organism: Mycobacterium tuberculosis variant bovis BCG str. Pasteur 1173P2): 230 nM

Sequence: ITFALKKLI
IC50 (HLA-A*03:01 [5]): 60.8 µM | IC50 (HLA-A*11:01 [6]): 57.7 µM | IC50 (HLA-A*24:02; [21]): 2.3 µM | IC50 (HLA-B*08:01; [21]): ≥ 210 µM

Sequence: ITMVNSLTY
Kd (HLA-A*01:01 [7]): 37.1 nM | Kd (HLA-A*02:01 [8]): ≥ 20 µM | Kd (HLA-A*11:01 [9]): 12 nM | Kd (HLA-A*26:01 [10]): 258 nM | Kd (HLA-A*31:01): ≥ 20 µM | Kd (HLA-A*69:01 [11]): ≥ 20 µM | Kd (HLA-B*08:02): ≥ 20 µM | Kd (HLA-B*27:05 [12]): ≥ 20 µM | Kd (HLA-B*40:01): ≥ 20 µM | Kd (HLA-B*48:01): ≥ 20 µM | Kd (HLA-B*58:01 [13]): 13 nM | Kd (HLA-A*03:01 [2]; [19]): 39 nM | Kd (HLA-A*30:01): ≥ 20 µM | Kd (HLA-B*15:01 [14]; [19]): 228 nM | Kd (HLA-B*15:17; [19]): 0.0041 µM | Kd (HLA-B*35:01; [19]): 290 nM | Kd (HLA-B*57:01; [19]): 0.257 µM | Kd (HLA-A*32:01): 95.7 nM

Kd (HLA-B*27:05 [4]; source organism: Escherichia coli 536): 114 nM
Sequence: KRYLQAKSE

Kd (HLA-A*03:01 [2]; [22]): 429 nM | Kd (HLA-B*35:01; [22]): 26.7 nM
Sequence: KVLSHGWAY

Sequence: NRYGLPEKM
Kd (HLA-B*27:05 [4]; [23]): 17.5 nM

Sequence: SASLAALFY
Kd (HLA-A*01:01 [1]; [23]): 28.1 nM | Kd (HLA-B*35:01; [23]): 0.2 nM

Sequence: TEDDWITYI
Kd (HLA-A*02:01 [15]; [24]): ≥ 20 µM | Kd (HLA-A*02:03; [24]): ≥ 20 µM | Kd (HLA-A*02:11; [24]): ≥ 20000 nM | Kd (HLA-A*02:12; [24]): ≥ 20 µM | Kd (HLA-A*02:16; [24]): 402 nM | Kd (HLA-A*02:19; [24]): ≥ 20 µM | Kd (HLA-A*03:01 [2]; [24]): ≥ 20000 nM | Kd (HLA-A*23:01; [24]): ≥ 20 µM | Kd (HLA-A*24:03; [24]): ≥ 20 µM | Kd (HLA-A*26:01 [16]; [24]): ≥ 20 µM | Kd (HLA-A*29:02; [24]): ≥ 20 µM | Kd (HLA-A*68:02; [24]): ≥ 20 µM | Kd (HLA-A*69:01 [17]; [24]): ≥ 20 µM | Kd (HLA-B*15:01 [14]; [24]): ≥ 20000 nM | Kd (HLA-B*15:17; [24]): ≥ 20 µM | Kd (HLA-B*18:01; [24]): ≥ 20 µM | Kd (HLA-B*27:03; [24]): ≥ 20 µM | Kd (HLA-B*39:01; [24]): ≥ 20 µM | Kd (HLA-B*46:01; [24]): ≥ 20 µM | Kd (HLA-B*51:01): ≥ 20 µM | Kd (HLA-B*57:01; [24]): ≥ 20 µM

Sequence: TRVLKPSVI
IC50 (HLA-B*08:01; [19]): ≥ 187 µM

Sequence: VIMWYNYLF
Kd (HLA-A*02:01 [15]; source organism: Fowlpox virus): ≥ 20 µM | Kd (HLA-A*02:03; source organism: Fowlpox virus): ≥ 20 µM | Kd (HLA-A*02:11; source organism: Fowlpox virus): 4.7 nM | Kd (HLA-A*02:12; source organism: Fowlpox virus): ≥ 20 µM | Kd (HLA-A*02:16; source organism: Fowlpox virus): ≥ 20000 nM | Kd (HLA-A*02:19; source organism: Fowlpox virus): ≥ 20 µM | Kd (HLA-A*03:01 [2]; source organism: Fowlpox virus): ≥ 20000 nM | Kd (HLA-A*23:01; source organism: Fowlpox virus): ≥ 20 µM | Kd (HLA-A*24:03; source organism: Fowlpox virus): ≥ 20 µM | Kd (HLA-A*26:01 [16]; source organism: Fowlpox virus): ≥ 20 µM | Kd (HLA-A*29:02; source organism: Fowlpox virus): ≥ 20 µM | Kd (HLA-A*68:02; source organism: Fowlpox virus): ≥ 20 µM | Kd (HLA-A*69:01 [17]; source organism: Fowlpox virus): ≥ 20 µM | Kd (HLA-B*15:01 [14]; source organism: Fowlpox virus): ≥ 20000 nM | Kd (HLA-B*15:17; source organism: Fowlpox virus): ≥ 20 µM | Kd (HLA-B*18:01; source organism: Fowlpox virus): ≥ 20 µM | Kd (HLA-B*27:03; source organism: Fowlpox virus): ≥ 20 µM | Kd (HLA-B*39:01; source organism: Fowlpox virus): ≥ 20 µM | Kd (HLA-B*46:01; source organism: Fowlpox virus): ≥ 20 µM | Kd (HLA-B*57:01; source organism: Fowlpox virus): ≥ 20 µM

Sequence: WMACNSAAF
Kd (HLA-C*06:02): ≥ 20 µM | Kd (HLA-B*15:01 [14]; [25]): 14.6 nM | Kd (HLA-B*35:01; [25]): 0.2 nM | Kd (HLA-B*46:01; [25]): 0.109 µM

Sequence: YRIWLEQNK
Kd (HLA-B*27:05 [4]; source organism: Mycobacterium tuberculosis C): 82.5 nM

Sequence: YSKDSRNKL
IC50 (HLA-A*24:02; [26]): 19.7 µM | IC50 (HLA-B*08:01; [26]): ≥ 77.1 µM | IC50 (HLA-B*15:01 [18]): ≥ 255 µM

Reference: the Immune Epitope Database (IEDB)
